A short description of data set [1]: Galactose binding: isothermal fluorescence titrations of conjugates. Details: key to Galactose trueKd: nb, no bonding. The following applies: for S, selectivity = trueKd(galactose)/trueKd(glucose): S > 1, selective for glucose; for Kd: read-out: Galactose trueKd; for Kd / Galactose trueKd: monochromatic titration curves, room temperature.
Data set [2] in a line: Thermostability: mid-point thermal denaturation temperature (Tm) from temperature-dependent fluorescence (Roche LightCycler). The settings on record: apo-protein. It counts as physicochemical. A digest of the protocol:
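Unfolding tracked by SYPRO binding to denatured protein, fluorescence at 488 nm/510 nm recorded on a LightCycler as temperature rose in 1 K steps. Tm taken as denaturation mid-point, for protein in solution or immobilized on Ni-NTA or NHS-agarose beads.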

Data set [3] can be described thus: Glucose-dependent fluorescence emission intensity spectra of conjugates (Nanodrop3300). The settings on record: Nanodrop3300. It counts as biochemical. An excerpt: Semi-synthetic FRSs were engineered by site-specifically attaching thiol-reactive, environmentally sensitive fluorophores that respond to ligand-mediated conformational changes. Identification of FRS candidates that are useful for sensing applications comprises three steps: • 1. Cysteine scan. Mutant glucose-binding proteins containing single cysteines are constructed for site-specific attachment of thiol-reactive fluorophores. […] Candidate positions fall into three classes: endosteric, replacing a residue that contacts the ligand directly; peristeric, located at the rim of the binding site; allosteric (Marvin et al. 1997 Proc Natl Acad Sci USA, 94, 4366-71; Marvin 1998 J Am Chem Soc, 120, 7-11), located outside the binding site at sites that undergo local structural changes in concert with the hinge-bending motion. • 2. Fluorophore screening. Thiol-reactive, environmentally sensitive fluorophores are attached to each cysteine mutant prepared in step 1. • 3. Evaluation of the glucose-mediated change of all the fluorescent conjugates prepared in step 2. Responses to ligand binding in which there is both a change in fluorescence emission intensity and spectral shape was essential for chemometric applications, because such changes enable ratiometric measurements. Changes in spectral shape typically are accompanied by a shift in the wavelength of the emission intensity maxima. Three classes of fluorescent responses are possible: • i. No response. • ii. Monochromatic response (emission intensity increases or decreases without a change in spectral shape) • iii.

The nature of data set [4]: Glucose binding: isothermal fluorescence titrations, ratiometric (appKd) and monochromatic (trueKd) fits. Set-up: key to Glucose appKd / Glucose trueKd: nb, no bonding. The settings on record: room temperature. From the text: 2 For a single glucose-binding site, the fractional saturation is given by
[formula] where ^apoIλ2 and ^satIλ2 are the emission intensities of the monochromatic signal at wavelength λ2 of the ligand-free and ligand-bound protein, respectively.

Where [5] appears, read: Acrylodan conjugate of ttGGBP.17C mutant.
[6] abbreviates: Badan conjugate of ttGGBP.17C mutant.
[7] abbreviates: read-out: Glucose appKd, Acrylodan conjugate, dichromatic ratiometry.
The mark [8] stands for this setting: read-out: Glucose appKd, Badan conjugate, dichromatic ratiometry.
Setting [9] is: read-out: Glucose trueKd, Acrylodan conjugate, monochromatic titration curves.
Where [10] appears, read: read-out: Glucose trueKd, Badan conjugate, monochromatic titration curves.

Residue numbers refer to the chain shown, from its start.

B1: ttGGBP17C.2: affinity-tuning mutant, 17C background, SEQ ID NO: 67 (protein)
chain: MKQLNIGVAIYKFDDTCMTGVRNAMTAEAQGKAKLNMVDSQNSQPTQNDQVDLFITKKMNALAINPVDPTAAGTIIDKAKQANIPVVFFNREPLPEDMKKWDKVYYVGAKAEQSGILQGQIMADYWKAHPEADKNHDGVMQYVMLMGQPGHPDAILRTQYSIQTVKDAGIKVQELAKDYANWDRVTAHDKMAAWLSSFGDKIEAVFANNDDMALGAIEALKSAGYFTGNKYIPVVGVDATAPGIQAIKDGTLLGTVLNDAKNQAKATFNIAYELAQGITPTKDNIGYDITDGKYVWIPYKKITKDNISDAEQGGSHHHHHH
modifications: ttGGBP17C.2 (affinity-tuning mutant, 17C background (Table 6) with signal peptide replaced with M and GGSHHHHHH at C-terminus)
For the molecule B1, the “S, selectivity = trueKd(galactose)/trueKd(glucose)” value in data set [1] (Acrylodan conjugate) is on record as 0.28; in data set [1] (Badan conjugate), 0.48. The Kd was 5 mM in data set [1] (Acrylodan conjugate); 5.2 mM in data set [1] (Badan conjugate); 15 mM in data set [4] (setting [7]); 8.6 mM in data set [4] (setting [8]); 18 mM in data set [4] (setting [9]); 10.8 mM in data set [4] (setting [10]). In data set [2] (Badan conjugate), this molecule displayed an apoTm of 350 K. Further, the “Type of fluorescence response to glucose” value in data set [3] (setting [5]) is recorded as “d (d, intensity decrease only)”; in data set [3] (setting [6]), “r(h) (r(h), ratiometric (hypsochromic shift))”.

B2: ttGGBP17C.4: affinity-tuning mutant, 17C background, SEQ ID NO: 69 (protein)
chain: B1 chain with P69R, H151Q, P152Q
modifications: ttGGBP17C.4 (affinity-tuning mutant, 17C background (Table 6) with signal peptide replaced with M and GGSHHHHHH at C-terminus)
Take B2: the “S, selectivity = trueKd(galactose)/trueKd(glucose)” value in data set [1] (Acrylodan conjugate) came out at 0.29; in data set [1] (Badan conjugate), 2.2. Further, the Kd in data set [1] (Acrylodan conjugate) is 14 mM; in data set [1] (Badan conjugate), 14 mM; in data set [4] (setting [7]) it was 50 mM; in data set [4] (setting [8]) it was 16 mM; in data set [4] (setting [9]), 48 mM; in data set [4] (setting [10]) it was 6.4 mM. Besides, the apoTm in data set [2] (Badan conjugate) worked out at 347 K. For the same molecule, the “Type of fluorescence response to glucose” value is “r(h) (r(h), ratiometric (hypsochromic shift))” in data set [3] (setting [5]) and “r(h) (r(h), ratiometric (hypsochromic shift))” in data set [3] (setting [6]).

B3: ttGGBP17C.6: affinity-tuning mutant, 17C background, SEQ ID NO: 71 (protein)
chain: B1 chain with D15E, P69R, P152Q
modifications: ttGGBP17C.6 (affinity-tuning mutant, 17C background (Table 6) with signal peptide replaced with M and GGSHHHHHH at C-terminus)
B3: the “S, selectivity = trueKd(galactose)/trueKd(glucose)” value in data set [1] (Badan conjugate) was determined as 1. Further, the Kd in data set [1] (Badan conjugate) was 3.6 mM; in data set [4] (setting [8]), 3.3 mM; in data set [4] (setting [10]), 3.6 mM. This molecule came in with an apoTm in data set [2] (Badan conjugate) of 346 K. For the same molecule, the “Type of fluorescence response to glucose” value in data set [3] (setting [6]) is given as “r(h) (r(h), ratiometric (hypsochromic shift))”.

B4: ttGGBP17C.24: affinity-tuning mutant, 17C background, SEQ ID NO: 82 (protein)
chain: B1 chain with P69R, P152Q, A260R
modifications: ttGGBP17C.24 (affinity-tuning mutant, 17C background (Table 6) with signal peptide replaced with M and GGSHHHHHH at C-terminus)
Turning to B4, the Kd in data set [1] (Badan conjugate) was 29 mM. In addition, the apoTm in data set [2] (Badan conjugate) was 344 K. In addition, the “Type of fluorescence response to glucose” value in data set [3] (setting [6]) was “i (i, intensity increase only)”.

B5: ttGGBP17C.3: affinity-tuning mutant, 17C background, SEQ ID NO: 68 (protein)
chain: B1 chain with T16N, P69R, P152Q, D211A
modifications: ttGGBP17C.3 (affinity-tuning mutant, 17C background (Table 6) with signal peptide replaced with M and GGSHHHHHH at C-terminus)
For the molecule B5, the Kd in data set [1] (Acrylodan conjugate) worked out at 0.53 mM; in data set [1] (Badan conjugate) it was 2.5 mM; in data set [4] (setting [7]), 1.4 mM; in data set [4] (setting [8]), 3.4 mM; in data set [4] (setting [10]), 4.1 mM. Further, the apoTm in data set [2] (Badan conjugate) was determined as 346 K. Moreover, the “Type of fluorescence response to glucose” value in data set [3] (setting [5]) is “d (d, intensity decrease only)”; in data set [3] (setting [6]), “r(h) (r(h), ratiometric (hypsochromic shift))”.

B6: ttGGBP17C.7: affinity-tuning mutant, 17C background, SEQ ID NO: 72 (protein)
chain: B1 chain with D15N, P69R, P152Q
modifications: ttGGBP17C.7 (affinity-tuning mutant, 17C background (Table 6) with signal peptide replaced with M and GGSHHHHHH at C-terminus)
As to B6, the “S, selectivity = trueKd(galactose)/trueKd(glucose)” value in data set [1] (Acrylodan conjugate) came out at 0.91; in data set [1] (Badan conjugate) it was 0.64. For the same molecule, the Kd in data set [1] (Acrylodan conjugate) was 0.3 mM; in data set [1] (Badan conjugate) it was 0.64 mM; in data set [4] (setting [7]) it was 0.3 mM; in data set [4] (setting [8]) it was 0.75 mM; in data set [4] (setting [9]) it was 0.3 mM; in data set [4] (setting [10]), 1 mM. The apoTm turned out to be 348 K in data set [2] (Acrylodan conjugate) and 347 K in data set [2] (Badan conjugate). In addition, the “Type of fluorescence response to glucose” value was “d (d, intensity decrease only)” in data set [3] (setting [5]) and “d (d, intensity decrease only)” in data set [3] (setting [6]).

B7: ttGGBP17C.23: affinity-tuning mutant, 17C background, SEQ ID NO: 81 (protein)
chain: B1 chain with P69R, P152Q, A260Q
modifications: ttGGBP17C.23 (affinity-tuning mutant, 17C background (Table 6) with signal peptide replaced with M and GGSHHHHHH at C-terminus)
With B7, the “Galactose trueKd” value in data set [1] (Badan conjugate) was “nb^c”. This molecule yielded an apoTm in data set [2] (Badan conjugate) of 344 K. Also, the “Type of fluorescence response to glucose” value is “i (i, intensity increase only)” in data set [3] (setting [5]) and “i (i, intensity increase only)” in data set [3] (setting [6]). For the same molecule, the Kd in data set [4] (setting [8]) was found to be 15 mM; in data set [4] (setting [10]), 18 mM.

B8: ttGGBP17C.20: affinity-tuning mutant, 17C background, SEQ ID NO: 78 (protein)
chain: B1 chain with P69R, P152Q, N258S
modifications: ttGGBP17C.20 (affinity-tuning mutant, 17C background (Table 6) with signal peptide replaced with M and GGSHHHHHH at C-terminus)
As for B8, in data set [1] (Badan conjugate), the “Galactose trueKd” value is given as “nb^e”. Besides, the apoTm in data set [2] (Badan conjugate) is reported as 344 K. Also, the “Type of fluorescence response to glucose” value in data set [3] (setting [5]) is “d (d, intensity decrease only)”. Further, in data set [4] (Badan conjugate, dichromatic ratiometry), the “Glucose appKd” value is “nb^e”. For the same molecule, the “Glucose trueKd” value in data set [4] (Badan conjugate, monochromatic titration curves) is reported as “nb^e”.

B9: ttGGBP17C.8: affinity-tuning mutant, 17C background, SEQ ID NO: 73 (protein)
chain: B1 chain with T16N, P69R, P152Q
modifications: ttGGBP17C.8 (affinity-tuning mutant, 17C background (Table 6) with signal peptide replaced with M and GGSHHHHHH at C-terminus)
B9: in data set [1] (Acrylodan conjugate), the “S, selectivity = trueKd(galactose)/trueKd(glucose)” value is 0.43. Also, the values for the Kd in data set [1] (Acrylodan conjugate), in data set [4] (setting [7]) and in data set [4] (setting [9]) were 0.26 mM, 0.61 mM and 0.6 mM, respectively. Besides, in data set [2] (Acrylodan conjugate), the apoTm is on record as 348 K. For the same molecule, the “Type of fluorescence response to glucose” value in data set [3] (setting [5]) is “r(h) (r(h), ratiometric (hypsochromic shift))”.

B10: ttGGBP17C.22: affinity-tuning mutant, 17C background, SEQ ID NO: 80 (protein)
chain: B1 chain with P69R, P152Q, A260N
modifications: ttGGBP17C.22 (affinity-tuning mutant, 17C background (Table 6) with signal peptide replaced with M and GGSHHHHHH at C-terminus)
In data set [2] (Badan conjugate), B10 yielded an apoTm of 343 K. Moreover, in data set [3] (setting [6]), the “Type of fluorescence response to glucose” value is recorded as “i (i, intensity increase only)”. In addition, the figures for the Kd in data set [4] (setting [8]) and in data set [4] (setting [10]) were 12 mM and 15 mM, respectively.

The record behind these values is patent publication US11156615B2 (priority 2015, dated 2021).
